Reference: patent publication US6991916B2, “Compounds for the treatment of sexual dysfunction” (Pfizer Inc., priority 2000, dated 2006)
Non-standard residues stand in square brackets, D forms with d. QSY‑7 = quencher dye attached to Cys via maleimide; Rhodamine green = fluorophore at the N-terminus; βAla = NCCC(=O)O

Experiments:
human SEP = target: T1, human SEP (Homo sapiens, UniProt Q495T6); assay: Sensitivity of human SEP to inhibitors; format: biochemical
T1 construct: with the full length cDNA cloned into the pCMV6-XL4 vector; made in house; host or cells: CHO cells, transient transfection; dialysed culture medium
T1 sequence (Q495T6 75-779 limits assumed): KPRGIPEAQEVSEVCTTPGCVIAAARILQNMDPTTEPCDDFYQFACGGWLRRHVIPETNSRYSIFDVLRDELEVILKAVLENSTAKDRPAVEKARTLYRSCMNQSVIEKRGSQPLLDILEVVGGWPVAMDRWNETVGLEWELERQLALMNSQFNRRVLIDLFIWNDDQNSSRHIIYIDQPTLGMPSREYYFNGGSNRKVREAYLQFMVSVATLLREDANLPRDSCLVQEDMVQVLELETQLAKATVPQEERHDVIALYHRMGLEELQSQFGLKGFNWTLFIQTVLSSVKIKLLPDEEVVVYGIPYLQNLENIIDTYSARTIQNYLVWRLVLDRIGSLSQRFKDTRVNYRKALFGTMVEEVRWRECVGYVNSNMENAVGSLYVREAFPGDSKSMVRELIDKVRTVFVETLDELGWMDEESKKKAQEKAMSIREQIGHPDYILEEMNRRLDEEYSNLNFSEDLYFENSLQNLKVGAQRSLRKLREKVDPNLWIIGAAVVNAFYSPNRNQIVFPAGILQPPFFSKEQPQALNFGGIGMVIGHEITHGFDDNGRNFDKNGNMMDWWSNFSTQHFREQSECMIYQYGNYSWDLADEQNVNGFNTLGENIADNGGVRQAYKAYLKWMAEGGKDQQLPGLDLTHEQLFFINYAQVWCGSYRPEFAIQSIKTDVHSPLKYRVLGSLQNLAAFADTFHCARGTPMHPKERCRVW
Protocol: The enzymatic (proteolytic) activity of human SEP protein can be measured in an assay involving, for example, mixing a sample of the human SEP enzyme with a substrate peptide in a buffer solution (for example 50 mM HEPES; pH 7.4), incubating the mixture for a period of time (such as 1-3 hours) enough for human SEP to act to cleave a measurable portion of the peptide substrate to a product at a temperature suitable for SEP activity (typically 30-37° C.).
The effect of candidate human SEP inhibitor compounds or control test compounds such as phosphoramidon and thiorphan that may alter the activity of human SEP can be measured in this type of assay by including them in the initial mixture at a range of suitable test concentrations, typically 0.1 nM to 50 µM.
To determine the IC50 of SEP inhibitors (SEPi; for example, phosphoramidon), multiple SEP assays are performed as described above with a range of test concentrations of inhibitor included in the 50 μl of DMSO solution (made by appropriate dilution of a 10 mM 100% DMSO stock of inhibitor with 4% DMSO/50 mM HEPES pH7.4.). Using a suitable standard graph fitting computer program, a sigmoidal dose response curve is fitted to a plot of log inhibitor concentration versus MaxV (or % inhibition or % activity). The IC50 is calculated as the inhibitor concentration causing 50% maximal inhibition. […]

mouse SEP = target: T2, mouse SEP (Mus musculus, UniProt Q9JLI3); details: cited from earlier work
T2 sequence (Q9JLI3 1-765): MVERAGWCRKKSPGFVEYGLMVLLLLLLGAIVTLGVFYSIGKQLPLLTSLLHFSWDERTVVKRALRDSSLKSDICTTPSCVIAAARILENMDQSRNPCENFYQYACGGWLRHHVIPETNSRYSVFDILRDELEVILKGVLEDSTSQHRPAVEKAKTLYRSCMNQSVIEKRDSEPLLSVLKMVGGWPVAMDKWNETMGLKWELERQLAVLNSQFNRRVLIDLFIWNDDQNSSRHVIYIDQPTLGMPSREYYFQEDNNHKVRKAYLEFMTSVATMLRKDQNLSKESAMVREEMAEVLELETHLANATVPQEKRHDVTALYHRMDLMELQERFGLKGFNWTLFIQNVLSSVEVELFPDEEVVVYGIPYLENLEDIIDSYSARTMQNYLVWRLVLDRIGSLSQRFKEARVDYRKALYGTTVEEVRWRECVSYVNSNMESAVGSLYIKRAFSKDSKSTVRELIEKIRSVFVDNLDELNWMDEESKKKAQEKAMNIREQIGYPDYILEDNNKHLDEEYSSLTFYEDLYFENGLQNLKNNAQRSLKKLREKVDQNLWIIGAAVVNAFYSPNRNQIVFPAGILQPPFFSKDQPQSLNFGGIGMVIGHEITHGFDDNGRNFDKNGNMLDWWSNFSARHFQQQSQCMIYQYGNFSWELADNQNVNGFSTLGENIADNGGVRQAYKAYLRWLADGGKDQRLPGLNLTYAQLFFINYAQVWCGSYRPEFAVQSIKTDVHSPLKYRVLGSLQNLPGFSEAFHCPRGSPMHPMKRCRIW

NEP enzyme = target: T3, NEP enzyme (Homo sapiens, UniProt P08473); assay: NEP FRET assay (384 well, substrate CP4); format: biochemical; details: steady state kinetics of NEP with the peptide substrate
T3 construct: made in house; host or cells: Pichia pastoris

[1] = target: T4, Rhodamine green-Gly-Gly-dPhe-Leu-Arg-Arg-Val-Cys(QSY-7)-betaAla-NH2
T4 chain: GGFLRRVCA

T3 sequence (P08473 whole entry): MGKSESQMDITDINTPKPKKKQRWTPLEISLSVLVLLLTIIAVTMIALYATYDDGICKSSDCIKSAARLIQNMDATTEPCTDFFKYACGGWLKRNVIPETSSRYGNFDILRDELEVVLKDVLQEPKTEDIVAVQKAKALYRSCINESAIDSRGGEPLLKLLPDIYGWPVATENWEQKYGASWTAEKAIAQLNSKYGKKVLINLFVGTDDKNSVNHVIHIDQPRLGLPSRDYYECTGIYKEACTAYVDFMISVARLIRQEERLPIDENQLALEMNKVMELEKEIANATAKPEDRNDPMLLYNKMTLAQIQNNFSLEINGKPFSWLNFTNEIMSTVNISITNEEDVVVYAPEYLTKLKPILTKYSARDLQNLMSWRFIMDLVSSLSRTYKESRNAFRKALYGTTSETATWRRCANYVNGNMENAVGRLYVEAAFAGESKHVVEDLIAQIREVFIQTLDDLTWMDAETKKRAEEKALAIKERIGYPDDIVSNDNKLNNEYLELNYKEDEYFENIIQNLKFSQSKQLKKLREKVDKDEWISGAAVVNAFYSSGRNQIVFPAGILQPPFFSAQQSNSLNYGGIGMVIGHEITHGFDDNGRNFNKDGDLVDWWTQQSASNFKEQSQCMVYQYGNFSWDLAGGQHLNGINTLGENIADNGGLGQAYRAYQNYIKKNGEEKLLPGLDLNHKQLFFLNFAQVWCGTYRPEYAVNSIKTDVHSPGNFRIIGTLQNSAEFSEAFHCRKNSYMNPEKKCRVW

In the case of `O=C(O)CNC(=O)C(CS)Cc1ccccc1` (stereo not drawn) [thiorphan], the “sensitivity of enzyme to inhibitor” value (human SEP) is given as “sensitive” and the “sensitivity of enzyme to inhibitor” value (mouse SEP) is given as “sensitive”.

In the case of `CC(C)C[C@H](NP(=O)(O)O[C@@H]1O[C@@H](C)[C@H](O)[C@@H](O)[C@H]1O)C(=O)N[C@@H](Cc1c[nH]c2ccccc12)C(=O)O` [phosphoramidon], the “sensitivity of enzyme to inhibitor” value (human SEP) is listed as “sensitive” and the “sensitivity of enzyme to inhibitor” value (mouse SEP) is listed as “sensitive”.

“Rhodamine green-Gly-Gly-dPhe-Leu-Arg-Arg-Val-Cys(QSY™-7)-βAla-NH2 ({Rhodamine green}-GG[dF]LRRVC(QSY‑7)[βAla]-NH2) [CP4]” showed a Kcat (NEP enzyme) of 5 min⁻¹ and a Km (NEP enzyme; recombinant human enzyme, 50 mM Hepes pH 8, 25° C.) of 8 µM.

B1: Recombinant human NEP (neutral endopeptidase) enzyme (protein)
chain: YDDGICKSSDCIKSAARLIQNMDATTEPCTDFFKYACGGWLKRNVIPETSSRYGNFDILRDELEVVLKDVLQEPKTEDIVAVQKAKALYRSCINESAIDSRGGEPLLKLLPDIYGWPVATENWEQKYGASWTAEKAIAQLNSKYGKKVLINLFVGTDDKNSVNHVIHIDQPRLGLPSRDYYECTGIYKEACTAYVDFMISVARLIRQEERLPIDENQLALEMNKVMELEKEIANATAKPEDRNDPMLLYNKMTLAQIQNNFSLEINGKPFSWLNFTNEIMSTVNISITNEEDVVVYAPEYLTKLKPILTKYSARDLQNLMSWRFIMDLVSSLSRTYKESRNAFRKALYGTTSETATWRRCANYVNGNMENAVGRLYVEAAFAGESKHVVEDLIAQIREVFIQTLDDLTWMDAETKKRAEEKALAIKERIGYPDDIVSNDNKLNNEYLELNYKEDEYFENIIQNLKFSQSKQLKKLREKVDKDEWISGAAVVNAFYSSGRNQIVFPAGILQPPFFSAQQSNSLNYGGIGMVIGHEITHGFDDNGRNFNKDGDLVDWWTQQSASNFKEQSQCMVYQYGNFSWDLAGGQHLNGINTLGENIADNGGLGQAYRAYQNYIKKNGEEKLLPGLDLNHKQLFFLNFAQVWCGTYRPEYAVNSIKTDVHSPGNFRIIGTLQNSAEFSEAFHCRKNSYMNPEKKCRVW
For B1, the Kcat [1] was 5 min⁻¹, the Kcat/Km [1] was 10,500 M^-1 S^-1 and the Km [1] was 8 µM.
